Measured values from patent EP2586797A2.
Changes are numbered by the printed parent chain.

B1: Composite human antibody variant VH5/VK3 (antibody, human IgG1, V domains shown)
VH: QVQLVQSGAEVKKPGASVKVSCTASGFNIKDTYIHWVRQARGQRLEWIGRFDPVNVNTRYDSRFRGRVTITSDASTSTAYMELSSLRSEDTAVYYCSRSYYNGRRRFTYWGQGTLVTVSS
VL: DIVMTQSPSSLTASVGDRVTITCKASQSLLSSGNQKNYLTWYQQKPGQPPKLLIYWASIRESGVPDRFSGSGSGTDFTLTISSLQAEDVAVYYCQNDYNYPFTFGQGTKLEIK
B2: Composite human antibody variant VH2/VK2 (antibody, human IgG1, V domains shown)
VH: B1 VH with Q1E, V68A, S77N
VL: B1 VL with S69T, D76F
B3: Composite human antibody variant VH1/VK1 (antibody, V domains shown)
VH: B1 VH with Q1E, V11L, R41P, V68A, S77N
VL: B1 VL with S9D, A13V, V15L, D17E, V19A, T22N, S69T, D76F
B4: Composite human antibody variant VH4/VK3 (antibody, human IgG1, V domains shown)
VH: B1 VH with S77N
VL: B1 VL
B5: Composite human antibody variant VH2/VK3 (antibody, human IgG1, V domains shown)
VH: B1 VH with Q1E, V68A, S77N
VL: B1 VL
B6: Composite human antibody variant VH1/VK3 (antibody, human IgG1, V domains shown)
VH: B1 VH with Q1E, V11L, R41P, V68A, S77N
VL: B1 VL
B7: Composite human antibody variant VH3/VK3 (antibody, human IgG1, V domains shown)
VH: B1 VH with V68A, S77N
VL: B1 VL

Molecular target: Abeta42 beta amyloid peptide (UniProt P05067)
Test: competition ELISA, NS0 supernatant titrated against 0.25 ug/ml biotinylated mouse 6E10 (mouse MDT-2007) on coated beta amyloid; IC50 normalised to mouse 6E10 (=1; <1 improved)

Chain of Abeta42 beta amyloid peptide (P05067 672-713 limits assumed): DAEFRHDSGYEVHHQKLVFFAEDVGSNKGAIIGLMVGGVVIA

Row | Binder | fold difference in IC50 relative to mouse 6E10
1 | B1 | 1.02 fold
2 | B2 | 1.1 fold
3 | B3 | 0.78 fold
4 | B4 | 1.36 fold
5 | B5 | 0.96 fold
6 | B6 | 1.93 fold
7 | B7 | 1.57 fold
